Biological target: P301S tauRD-mEOS3.2 (human)
Experiment: FRET or BRET

- percent FRET-positive cells (100 nM recombinant tau fibrils): 74%
Substance: P301S tauRD-mEOS3.2 (domain or fragment)

Reference: paper doi:10.1101/2023.12.13.571598
